Laboratory results reported in the Human Domainome abundance scans (Beltran et al. 2025).
± gives the uncertainty stated by the source.

Assay: abundance fitness (aPCA) (normalised: wild type 0, dead -1); higher = more abundant; growth selection in yeast, the domain comes from the species named
Conditions: Homo sapiens

Going from “E3 ubiquitin-protein ligase NEDD4-like P196A, Q96PU5” to “E3 ubiquitin-protein ligase NEDD4-like P196D, Q96PU5”, the abundance fitness falls from -0.01 ± 0.07 to -0.231 ± 0.08.

“E3 ubiquitin-protein ligase NEDD4-like P196F, Q96PU5” and “E3 ubiquitin-protein ligase NEDD4-like P196H, Q96PU5” are within error of each other in abundance fitness: -0.567 ± 0.098 for the first, -0.413 ± 0.097 for the second.

Compared with “E3 ubiquitin-protein ligase NEDD4-like P196K, Q96PU5”, “E3 ubiquitin-protein ligase NEDD4-like P196L, Q96PU5” is higher in abundance fitness: -0.402 ± 0.11 for the first, -0.126 ± 0.078 for the second.

Compared with “E3 ubiquitin-protein ligase NEDD4-like P196M, Q96PU5”, “E3 ubiquitin-protein ligase NEDD4-like P196N, Q96PU5” is lower in abundance fitness: -0.011 ± 0.071 for the first, -0.228 ± 0.11 for the second.

“E3 ubiquitin-protein ligase NEDD4-like P196Q, Q96PU5” and “E3 ubiquitin-protein ligase NEDD4-like P196R, Q96PU5” are within error of each other in abundance fitness: -0.217 ± 0.073 for the first, -0.106 ± 0.063 for the second.

“E3 ubiquitin-protein ligase NEDD4-like P196S, Q96PU5” and “E3 ubiquitin-protein ligase NEDD4-like P196T, Q96PU5” are within error of each other in abundance fitness: -0.138 ± 0.068 for the first, -0.239 ± 0.083 for the second.

Compared with “E3 ubiquitin-protein ligase NEDD4-like P196V, Q96PU5”, “E3 ubiquitin-protein ligase NEDD4-like P196W, Q96PU5” is lower in abundance fitness: -0.184 ± 0.056 for the first, -0.416 ± 0.057 for the second.

Compared with “E3 ubiquitin-protein ligase NEDD4-like P196Y, Q96PU5”, “E3 ubiquitin-protein ligase NEDD4-like P197A, Q96PU5” is higher in abundance fitness: -0.384 ± 0.11 for the first, 0.022 ± 0.071 for the second.

“E3 ubiquitin-protein ligase NEDD4-like P197C, Q96PU5” and “E3 ubiquitin-protein ligase NEDD4-like P197D, Q96PU5” are within error of each other in abundance fitness: -0.249 ± 0.095 for the first, -0.25 ± 0.11 for the second.

“E3 ubiquitin-protein ligase NEDD4-like P197E, Q96PU5” and “E3 ubiquitin-protein ligase NEDD4-like P197F, Q96PU5” are within error of each other in abundance fitness: 0.031 ± 0.074 for the first, -0.006 ± 0.061 for the second.

Going from “E3 ubiquitin-protein ligase NEDD4-like P197H, Q96PU5” to “E3 ubiquitin-protein ligase NEDD4-like P197I, Q96PU5”, the abundance fitness rises from -0.097 ± 0.085 to 0.18 ± 0.11.

Compared with “E3 ubiquitin-protein ligase NEDD4-like P197K, Q96PU5”, “E3 ubiquitin-protein ligase NEDD4-like P197L, Q96PU5” is lower in abundance fitness: 0.267 ± 0.094 for the first, 0.048 ± 0.075 for the second.

“E3 ubiquitin-protein ligase NEDD4-like P197M, Q96PU5” and “E3 ubiquitin-protein ligase NEDD4-like P197Q, Q96PU5” are within error of each other in abundance fitness: 0.006 ± 0.076 for the first, -0.081 ± 0.099 for the second.

“E3 ubiquitin-protein ligase NEDD4-like P197R, Q96PU5” and “E3 ubiquitin-protein ligase NEDD4-like P197S, Q96PU5” are within error of each other in abundance fitness: 0.093 ± 0.057 for the first, 0.073 ± 0.06 for the second.

“E3 ubiquitin-protein ligase NEDD4-like P197T, Q96PU5” and “E3 ubiquitin-protein ligase NEDD4-like P197V, Q96PU5” are within error of each other in abundance fitness: -0.017 ± 0.087 for the first, -0.009 ± 0.06 for the second.

Compared with “E3 ubiquitin-protein ligase NEDD4-like P197W, Q96PU5”, “E3 ubiquitin-protein ligase NEDD4-like P197Y, Q96PU5” is higher in abundance fitness: -0.237 ± 0.089 for the first, -0.058 ± 0.08 for the second.

“E3 ubiquitin-protein ligase NEDD4-like P224A, Q96PU5” and “E3 ubiquitin-protein ligase NEDD4-like P224C, Q96PU5” are within error of each other in abundance fitness: -0.765 ± 0.08 for the first, -0.772 ± 0.11 for the second.

“E3 ubiquitin-protein ligase NEDD4-like P224D, Q96PU5” and “E3 ubiquitin-protein ligase NEDD4-like P224E, Q96PU5” are within error of each other in abundance fitness: -0.772 ± 0.14 for the first, -0.612 ± 0.086 for the second.

First: E3 ubiquitin-protein ligase NEDD4-like P224F, Q96PU5
Second: E3 ubiquitin-protein ligase NEDD4-like P224G, Q96PU5
The abundance fitness of the first is lower: -1.1 ± 0.21 for the first, -0.734 ± 0.065 for the second.
